The values that follow are results of earlier work, collected in publication PMC5209733, “U24 from Roseolovirus interacts strongly with Nedd4 WW Domains” (Scientific Reports, 2017).

One data set deals with Fyn SH3. As to conditions: association with Fyn SH3. From the text: One possible way in which U24 may be implicated in MS is through the mimicry of myelin basic protein (MBP) because the two proteins share a seven amino acid stretch that contains a PxxP motif (Fig. 1a). This segment is essential for MBP to participate in Fyn-mediated signalling pathways by a direct but non-canonical association with the Fyn-SH3 domain[11]. Disruption of these signalling pathways has a large impact on oligodendrocyte differentiation and maturation, processes that are perturbed in MS patients. Within this PxxP motif and just before it are two threonine residues (T95 and T98), wh ...

Data set [1] concerns human Nedd4 family E3 ubiquitin ligases: Nedd4-1, Nedd4-2, AIP4, Smurf1, Smurf2, WWP1, and WWP2. As to conditions: pull-down assays. From the text: However, precise binding affinities are hard to extract from such results. […] We have focussed our studies on human Nedd4 WW domains (hNedd4 and hNedd4L, Fig. 1b) given their relevance in the CNS, noted above. As controls, we have u ...

For data set [2], the system named is TCR/CD3ε receptors in T-cells. As to conditions: PY motif responsible for down-regulation. An excerpt: (§1) Within the proline rich region of U24 is a PY motif that is conserved in both HHV-6A and HHV-7 (Fig. 1a). […] However, the exact mechanism by which this occurs is unknown.
Data set [3] relates to transferrin receptor (TfR).
Description: as §1

A further data set concerns Nedd4-WW1 domain. To be noted: found previously. On the procedure: In order to compare with previously reported results, experiments were carried out on four relevant WW domains: the second and the third WW domain of rat Nedd4 (rNedd4-WW2 and rNedd4-WW3/4, where WW3/4 is a homologue of the fourth WW domain in human), and the pair of third WW domains from human Nedd4 (hNedd4-WW3* and hNedd4L-WW3*). The WW3 domains are indicated with a star because this type of WW domain is missing in rat and mouse Nedd4[36][37]. Nedd4-WW1 domain was not used as it was found previously not to bind U24. The WW domains mentioned above were fused to the C-terminus of GST prote ...

B1: MBP: myelin basic protein (protein, UniProt P02686 1-304, looked up)
Myelin basic protein: MGNHAGKRELNAEKASTNSETNRGESEKKRNLGELSRTTSEDNEVFGEADANQNNGTSSQDTAVTDSKRTADPKNAWQDAHPADPGSRPHLIRLFSRDAPGREDNTFKDRPSESDELQTIQEDSAATSESLDVMASQKRPSQRHGSKYLATASTMDHARHGFLPRHRDTGILDSIGRFFGGDRGAPKRGSGKDSHHPARTAHYGSLPQKSHGRTQDENPVVHFFKNIVTPRTPPPSQGKGRGLSLSRFSWGAEGQRPGFGYGGRASDYKSAHKGFKGVDAQGTLSKIFKLGGRDSRSGSPMARR
The Kd is the concentration at which binding is half-saturated. Consider B1, for which, on Fyn SH3, the Kd was 4 to 8 µM.

B2: U24: putative tail-anchored membrane protein that is unique to roseoloviruses (protein)
chain: MDPPRTPPPSYSEVLMMDVMCGQVSPHVINDTSFVECIPPPQSRPAWNLWNNRRKTFSFLVLTGLAIAMILFIVFVLYVFHVNRQRR
Turning to B2, in data set [1], the “binding to Nedd4 family E3 ubiquitin ligases” value is listed as “can bind to most of the seven human Nedd4 family E3 ubiquitin ligases”. For the same molecule, the “recycling of TCR/CD3ε receptors to the cell surface” value in data set [2] is recorded as “blocked from recycling back to the cell surface”. Besides, the “modulation of transferrin receptor” value in data set [3] is recorded as “down-modulate the transferrin receptor”. Besides, in the data set on Nedd4-WW1 domain, the “binding to Nedd4-WW1” value is reported as “not to bind”.
